# Laboratory results as given in EP4714976A1 (Sunshine Lake Pharma Co., Ltd., dated 2026).
# Where a chain is given by its changes, count along the chain named.
# T1: FGFR4 (acro) (UniProt P22455 22-369)
# T1 sequence (looked up): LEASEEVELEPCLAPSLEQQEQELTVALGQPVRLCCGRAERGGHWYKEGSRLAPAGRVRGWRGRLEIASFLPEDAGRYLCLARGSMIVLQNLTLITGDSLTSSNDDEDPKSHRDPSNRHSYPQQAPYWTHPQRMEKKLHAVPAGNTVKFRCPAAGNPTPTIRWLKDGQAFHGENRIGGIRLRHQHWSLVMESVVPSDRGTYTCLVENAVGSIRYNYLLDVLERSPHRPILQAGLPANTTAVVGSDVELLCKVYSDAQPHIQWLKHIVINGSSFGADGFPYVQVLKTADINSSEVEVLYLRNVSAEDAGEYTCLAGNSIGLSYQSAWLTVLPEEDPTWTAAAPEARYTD
# B1: 3A3 scFv-Fc (Fc fusion)
# chain: QVQLQQSGAELVKPGASVKMSCKASGYTFTTYNIHWVRQTPGQGLEWIGLIYPDNGDTSYNQKFKAKATLTADKSSSTAYMHLSSLTSEDSAVYYCARGGFDYWGQGTTLTVSSGGGGSGGGGSGGGGSDIVMTQSHKFMSTSVGDRVSITCKASQDVNTDVSWYQQKPGQSPKLLIYSASYRYTGVPTRFTGSGSGTDFTFTISGVQAEDLADYYCQQHYNTPYTFGGGTRLEIKESKYGPPCPPCPAPEAAGGPSVFLFPPKPKDTLMISRTPEVTCVVVDVSQEDPEVQFNWYVDGVEVHNAKTKPREEQFNSTYRVVSVLTVLHQDWLNGKEYKCKVSNKGLPSSIEKTISKAKGQPREPQVYTLPPSQEEMTKNQVSLTCLVKGFYPSDIAVEWESNGQPENNYKTTPPVLDSDGSFFLYSKLTVDKSRWQEGNVFSCSVMHEALHNHYTQKSLSLSLG
# notes: scFv-Fc dimer
# B2: 2B2 scFv-Fc (Fc fusion)
# chain: QLQLQQSGAELVKPGASVKMSCKASGYTFASYNLHWVKQTPGQGLEWIGLIYPENGDTSYNQKFKDKATLTADKSSTTAYIQLSSLASEDSAVYFCARGGFDYWGQGTTLTVSSGGGGSGGGGSGGGGSDIVMTQSQKFMSTSVGDRVSVTCKASQNVGTNVAWYQQKPGQSPKALIYSASYRYSGVPDRFTGSGSGTDYTLTISSVQAEDLALYYCQQHYSTPYTFGGGTKLELKESKYGPPCPPCPAPEAAGGPSVFLFPPKPKDTLMISRTPEVTCVVVDVSQEDPEVQFNWYVDGVEVHNAKTKPREEQFNSTYRVVSVLTVLHQDWLNGKEYKCKVSNKGLPSSIEKTISKAKGQPREPQVYTLPPSQEEMTKNQVSLTCLVKGFYPSDIAVEWESNGQPENNYKTTPPVLDSDGSFFLYSKLTVDKSRWQEGNVFSCSVMHEALHNHYTQKSLSLSLG
# notes: scFv-Fc dimer
# B3: 3H6 scFv-Fc (Fc fusion)
# chain: QVQLQQSGAELVKPGASVKMSCKASGYTFSFYNIHWVRQTPGQGLEWIGLIYPDNGDTSYNQKFKAKATLTADKSSSTAYMQLSSLTSEDSAVYYCARGGFDYWGQGTTLTVSSGGGGSGGGGSGGGGSDIQMTQSPASLSASVGETVTITCRASENIYSYLAWYQQKQGKSPQLLVYNAKTLAEGVPSRFSGSGSGTQFSLKINSLQPEDFGSYYCQHHYGTPYTFGGGTKLEMKESKYGPPCPPCPAPEAAGGPSVFLFPPKPKDTLMISRTPEVTCVVVDVSQEDPEVQFNWYVDGVEVHNAKTKPREEQFNSTYRVVSVLTVLHQDWLNGKEYKCKVSNKGLPSSIEKTISKAKGQPREPQVYTLPPSQEEMTKNQVSLTCLVKGFYPSDIAVEWESNGQPENNYKTTPPVLDSDGSFFLYSKLTVDKSRWQEGNVFSCSVMHEALHNHYTQKSLSLSLG
# notes: scFv-Fc dimer
# B4: 2B1 scFv-Fc (Fc fusion)
# chain: EVQLQQSGAELVKPGASVKMSCKASGYTFASYNLHWVKQTPGQGLEWIGLIYPENGDTSYNQKFKGKATLTADKSSSTAYIQLSSLTSEDSAVYFCARGGFDYWGQGTSLTVSSGGGGSGGGGSGGGGSDIQMIQSPASLSVSVGETVTITCRASENIYSNLAWYQQKQGKSPQLLVYNAKTLADGVPSRFSGSGSGTQYSLKINSLQPEDFGSYYCQHFWSTPYTFGGGTKLEIKESKYGPPCPPCPAPEAAGGPSVFLFPPKPKDTLMISRTPEVTCVVVDVSQEDPEVQFNWYVDGVEVHNAKTKPREEQFNSTYRVVSVLTVLHQDWLNGKEYKCKVSNKGLPSSIEKTISKAKGQPREPQVYTLPPSQEEMTKNQVSLTCLVKGFYPSDIAVEWESNGQPENNYKTTPPVLDSDGSFFLYSKLTVDKSRWQEGNVFSCSVMHEALHNHYTQKSLSLSLG
# notes: scFv-Fc dimer
# B5: 3B7 scFv-Fc (Fc fusion)
# chain: EVQLQQSGAELVKPGASVKMSCKASGYTFRYYNMHWVKRTPGQGLEWIGLIYPDNGDTSYNQKFKGKATLTADTSSSTAYMQLSSLTSEDSAVYYCARGGFDYWGQGTTLTVSSGGGGSGGGGSGGGGSDIQMTQSPASLSASVGETVTITCGASENIYGALNWYQRKQGKSPQLLIYGATNLADGMSSRFSGSGSGRQYSLKISSLHPDDVATYYCQNVLSTPYTFGGGTKLELKESKYGPPCPPCPAPEAAGGPSVFLFPPKPKDTLMISRTPEVTCVVVDVSQEDPEVQFNWYVDGVEVHNAKTKPREEQFNSTYRVVSVLTVLHQDWLNGKEYKCKVSNKGLPSSIEKTISKAKGQPREPQVYTLPPSQEEMTKNQVSLTCLVKGFYPSDIAVEWESNGQPENNYKTTPPVLDSDGSFFLYSKLTVDKSRWQEGNVFSCSVMHEALHNHYTQKSLSLSLG
# notes: scFv-Fc dimer
# B6: 3F10 scFv-Fc (Fc fusion)
# chain: B5 chain with R30S, Y31F, M34I, K38R, R39Q, G66A, T74K, I131V, Q132L, L235I
# notes: scFv-Fc dimer
# B7: 3F5 scFv-Fc (Fc fusion)
# chain: B5 chain with V2I, F101L, Q132V, M133L, L235I
# notes: scFv-Fc dimer
# B8: 3C9 scFv-Fc (Fc fusion)
# chain: B5 chain with V2I, T28I, F101L, T134I, L235I
# notes: scFv-Fc dimer
# B9: 3A12 scFv-Fc (Fc fusion)
# chain: EVQLQQSGAELVKPGASVKMSCKASGYTFSFYNVHWVRQTPGQGLEWIGLIYPDNGDTSYNQKFKAKATLTADKSSSAAYMQLSSLTSEDSAVYYCARGGFDYWGQGTSLTVSSGGGGSGGGGSGGGGSDIVMTQSHKFMSTSVGDRVNITCKASQDVSTAVAWYQQKPGQSPKLLIYSASYRYSGVPDRFTGSGSGTDFTFTISSVQAEDLAVYYCQQHYSTPYTFGGGTKLEMKESKYGPPCPPCPAPEAAGGPSVFLFPPKPKDTLMISRTPEVTCVVVDVSQEDPEVQFNWYVDGVEVHNAKTKPREEQFNSTYRVVSVLTVLHQDWLNGKEYKCKVSNKGLPSSIEKTISKAKGQPREPQVYTLPPSQEEMTKNQVSLTCLVKGFYPSDIAVEWESNGQPENNYKTTPPVLDSDGSFFLYSKLTVDKSRWQEGNVFSCSVMHEALHNHYTQKSLSLSLG
# notes: scFv-Fc dimer
# Target: T2, recombinant cynomolgus monkey FGFR2b (cynomolgus monkey)
# T2 construct: extracellular domain; bought; also called cynomolgus macaque FGFR2b
# Assay: ELISA, antibody 1ug/mL
row,OD (450 nm) value,Binder
1,3.2,B1
2,3.19,B2
3,3.35,B3
4,3,B4
5,3.12,B5
6,3.22,B6
7,3.17,B7
8,3.25,B8
9,3.27,B9

# Target: T3, FGFR2c (acro) (UniProt P21802 22-377)
# T3 sequence (P21802 22-377): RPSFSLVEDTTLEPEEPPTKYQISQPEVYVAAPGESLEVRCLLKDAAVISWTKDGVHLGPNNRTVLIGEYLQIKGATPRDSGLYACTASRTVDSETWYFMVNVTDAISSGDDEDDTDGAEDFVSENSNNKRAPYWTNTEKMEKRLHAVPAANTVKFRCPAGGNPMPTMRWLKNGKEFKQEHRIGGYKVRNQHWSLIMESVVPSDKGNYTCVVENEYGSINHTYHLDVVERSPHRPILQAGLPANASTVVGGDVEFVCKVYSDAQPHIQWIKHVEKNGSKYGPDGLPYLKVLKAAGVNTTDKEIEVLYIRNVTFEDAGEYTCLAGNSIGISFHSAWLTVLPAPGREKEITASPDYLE
# Assay: ELISA
row,binding result,Binder
1,no binding (tested: 10 µg/mL),B1
2,no binding (tested: 10 µg/mL),B2
3,no binding (tested: 10 µg/mL),B3
4,no binding (tested: 10 µg/mL),B4
5,no binding (tested: 10 µg/mL),B5
6,no binding (tested: 10 µg/mL),B6
7,no binding (tested: 10 µg/mL),B7
8,no binding (tested: 10 µg/mL),B8
9,no binding (tested: 10 µg/mL),B9

# Target: T1, FGFR4 (acro)
# Assay: ELISA
row,binding result,Binder
1,no binding (tested: 10 µg/mL),B1
2,no binding (tested: 10 µg/mL),B2
3,no binding (tested: 10 µg/mL),B3
4,no binding (tested: 10 µg/mL),B4
5,no binding (tested: 10 µg/mL),B5
6,no binding (tested: 10 µg/mL),B6
7,no binding (tested: 10 µg/mL),B7
8,no binding (tested: 10 µg/mL),B8
9,no binding (tested: 10 µg/mL),B9

# Target: T1, FGFR4 (acro)
# Assay: ELISA, antibody 10 µg/mL
row,OD (450 nm) value,Binder
1,0.136,B1
2,0.093,B2
3,0.157,B3
4,0.103,B4
5,0.116,B5
6,0.123,B6
7,0.145,B7
8,0.139,B8
9,0.106,B9

# Target: T4, human FGFR2b (Kaixia Biotechnology, catalog number FGR-HM1BB) (human, UniProt P21802-3 22-378)
# T4 construct: extracellular domain; bought; also called hFGFR2b; human FGFR2b protein
# T4 sequence (P21802 other isoform, or with tags, fused parts or gaps): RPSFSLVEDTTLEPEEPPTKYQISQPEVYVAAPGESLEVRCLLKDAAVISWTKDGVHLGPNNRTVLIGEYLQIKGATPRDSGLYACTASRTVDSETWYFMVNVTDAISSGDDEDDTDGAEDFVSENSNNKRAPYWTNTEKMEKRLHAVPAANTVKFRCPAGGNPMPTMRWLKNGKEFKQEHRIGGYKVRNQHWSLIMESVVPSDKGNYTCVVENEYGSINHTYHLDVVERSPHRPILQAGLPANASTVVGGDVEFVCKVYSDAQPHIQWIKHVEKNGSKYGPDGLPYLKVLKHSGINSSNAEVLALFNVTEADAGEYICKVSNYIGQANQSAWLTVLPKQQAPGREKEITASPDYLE
# Assay: BLI, antibody on AHC2 sensor
Kd [nM],koff [s⁻¹],kon [M⁻¹ s⁻¹],Binder
3.71,0.00133,359000,B1
6.18,0.00286,462000,B2
8.41,0.00166,198000,B3
6.67,0.00179,268000,B4
7.6,0.00203,267000,B5
7.62,0.00231,303000,B6
5.1,0.00143,281000,B7
2.7,0.000954,353000,B8
2.82,0.000662,235000,B9

# Target: T3, FGFR2c (acro)
# Assay: ELISA, antibody 10 µg/mL
row,OD (450 nm) value,Binder
1,0.137,B1
2,0.113,B2
3,0.093,B3
4,0.098,B4
5,0.089,B5
6,0.106,B6
7,0.111,B7
8,0.118,B8
9,0.098,B9

# Target: T5, FGFR2b on KATO III cells (human, UniProt P21802-3 22-822)
# T5 construct: whole, on cells; also called KATO III cells that overexpress FGFR2b
# T5 sequence (P21802 other isoform, or with tags, fused parts or gaps): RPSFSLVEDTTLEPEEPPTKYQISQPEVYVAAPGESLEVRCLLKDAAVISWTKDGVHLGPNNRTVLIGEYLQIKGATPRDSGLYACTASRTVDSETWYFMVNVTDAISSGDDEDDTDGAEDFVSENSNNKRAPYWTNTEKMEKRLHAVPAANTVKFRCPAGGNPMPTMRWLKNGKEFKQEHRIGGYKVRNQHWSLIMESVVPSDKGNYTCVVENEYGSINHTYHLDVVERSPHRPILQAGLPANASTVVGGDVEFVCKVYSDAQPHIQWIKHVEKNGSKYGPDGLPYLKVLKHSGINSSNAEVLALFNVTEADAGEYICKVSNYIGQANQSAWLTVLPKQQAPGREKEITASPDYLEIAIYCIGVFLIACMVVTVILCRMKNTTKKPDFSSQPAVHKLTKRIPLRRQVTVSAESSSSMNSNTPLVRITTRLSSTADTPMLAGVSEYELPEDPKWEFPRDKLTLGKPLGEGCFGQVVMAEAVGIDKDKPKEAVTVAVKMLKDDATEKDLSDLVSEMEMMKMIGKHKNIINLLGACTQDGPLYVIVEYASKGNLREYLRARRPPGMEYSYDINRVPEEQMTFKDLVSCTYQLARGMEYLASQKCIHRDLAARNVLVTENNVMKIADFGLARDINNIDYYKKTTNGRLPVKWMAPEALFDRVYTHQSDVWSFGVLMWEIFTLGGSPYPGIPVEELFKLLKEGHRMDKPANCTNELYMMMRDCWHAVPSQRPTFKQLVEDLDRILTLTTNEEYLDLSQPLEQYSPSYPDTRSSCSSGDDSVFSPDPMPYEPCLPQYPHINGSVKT
# Assay: flow cytometry, KATO III cells
row,EC50 [µg/mL],Binder
1,0.236,B1
2,0.233,B2
3,0.226,B3
4,0.195,B4
5,0.117,B5
6,0.159,B6
7,0.105,B7
8,0.253,B8
9,0.292,B9

# Target: T4, human FGFR2b (Kaixia Biotechnology, …)
# Assay: ELISA, FGFR2b coated at 1 µg/ml
row,EC50 [µg/mL],Binder
1,0.0216,B1
2,0.0216,B2
3,0.0128,B3
4,0.0276,B4
5,0.0147,B5
6,0.00818,B6
7,0.0159,B7
8,0.0147,B8
9,0.0128,B9
